One block for each binder: values may come before it. Non-standard residues stand in square brackets, D forms with d. No end group written: not given here. pY = N[C@@H](Cc1ccc(OP(=O)(O)O)cc1)C(=O)O
Target: T1, SH2 domain of Monosiga brevicollis crka1 (Monosiga brevicollis, UniProt A0A1C9VNP8 1-97)
T1 construct: seven additional amino acids left at the N-terminus after His-tag removal; For the NMR structure the same domain was made with the E. coli cell-free protein synthesis system; also called Mb-crka1 SH2; crka1 SH2 domain
T1 sequence: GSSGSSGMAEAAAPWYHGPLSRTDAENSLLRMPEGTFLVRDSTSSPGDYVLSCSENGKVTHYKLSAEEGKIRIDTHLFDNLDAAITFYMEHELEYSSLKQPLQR
Assay: ITC; peptide (400 uM) injected into the cell holding the SH2 domain (40 uM); 25 °C; 25 mM HEPES, pH7, 100 mM NaCl; MicroCal Auto-iTC200
Conditions: both partners purified

binding result: binds
B1: phosphopeptide DM-pYDVP-RN of S. rosetta PTSG_05573 (peptide)
peptide: DM[pY]DVPRN
notes: together with EM-pYDVP-RS it overlaps 5 of the 10 YxxP motifs; source: synthetic peptide, bought: Toray Research Center

binding result: binds
B2: phosphopeptide EM-pYDVP-RS of S. rosetta PTSG_05573 (peptide)
peptide: EM[pY]DVPRS
notes: together with DM-pYDVP-RN it overlaps 5 of the 10 YxxP motifs; source: synthetic peptide, bought: Toray Research Center

— publication PMC5043372, “A pre-metazoan origin of the CRK gene family and co-opted signaling network” (Scientific Reports, 2016)
